According to patent US20030158378A1 (Amgen, published 2003):

Target: T1, FLAG-tagged murine CHL2 polypeptide (mCHL2-FLAG) (murine, UniProt Q8VEA6 27-426)
T1 construct: also called murine CHL2-FLAG; FLAG-tagged mCHL2 protein
T1 sequence: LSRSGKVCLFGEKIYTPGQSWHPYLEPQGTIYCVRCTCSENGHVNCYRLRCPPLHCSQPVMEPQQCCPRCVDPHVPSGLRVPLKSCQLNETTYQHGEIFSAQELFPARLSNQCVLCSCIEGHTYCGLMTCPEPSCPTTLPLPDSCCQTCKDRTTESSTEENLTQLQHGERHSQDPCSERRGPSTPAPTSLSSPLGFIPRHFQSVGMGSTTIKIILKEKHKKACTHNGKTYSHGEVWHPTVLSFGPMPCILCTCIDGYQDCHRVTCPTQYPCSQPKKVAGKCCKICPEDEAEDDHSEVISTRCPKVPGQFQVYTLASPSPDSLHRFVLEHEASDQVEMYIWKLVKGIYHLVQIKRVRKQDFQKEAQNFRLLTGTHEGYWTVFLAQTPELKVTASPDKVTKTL
Experiment: co-immunoprecipitation: mCHL2-FLAG mixed with activin A, anti-mCHL2 antiserum, protein A agarose beads, western blot for activin
Source text: FIG. 12 illustrates the results of Western blot analysis using mCHL2-FLAG proteins. In panel A, mCHL2-FLAG was mixed with BMP5 or activin A, treated with an anti-mCHL2 antiserum, and precipitated with protein A agarose beads. In panel B, mCHL2-FLAG was mixed with BMP2, BMP4, BMP5, BMP6, GDF5 (BMP14), or activin A, treated with an anti-mCHL2 antiserum, and precipitated with protein A agarose beads.

binding result: no binding
B1: activin A (ligand, UniProt P08476 311-426, looked up)
chain: GLECDGKVNICCKKQFFVSFKDIGWNDWIIAPSGYHANYCEGECPSHIAGTSGSSLSFHSTVINHYRMRGHSPFANLKSCCVPTKLRPMSMLYYDDGQNIIKKDIQNMIVEECGCS
